From US20240115742A1, “FLUORINATED FIBERS FOR MULTIMODAL 1H AND 19F MRI, ULTRASOUND, FLUORESCENCE DETECTION AND CONFORMATIONAL AND TEMPERATURE DETECTION BY 19F MRS” (New York University, priority 2022, published 2024)
Values joined by “and” are separate entries in the source; they are usually repeats but may differ in a detail not shown here. Identical values can stand only once. Square brackets hold non-standard residues; d marks the D form. Ends that are not written are not given here. LTF = trifluoroleucine

What was measured:
Format in all cases: physicochemical
[1] = Confocal microscopy of CCM-bound fibers; settings: for fiber diameter after CCM binding (confocal): 50 μM protein saturated with CCM, pH 4.0
Description: Confocal Microscopy. Protein bound to CCM was studied by measuring 50 μM protein samples saturated with CCM as determined by fluorescent spectroscopic drug binding with a final 1% v/v DMSO (or 2×Kd). 10 μL of protein was added to a micro slide and a 22×22 mm #1 microscope cover glass. Slides were inverted and imaged using a Leica TCS SP8 X Laser Confocal Microscope using a dry 10× objective at RT. CCM was excited using a 460 nm line of the laser, and images were taken using a 470 to 550 nm detection window.
Confocal Microscopy. Q2LTF was diluted to 50 μM and saturated with 40 μM of curcumin (solubilized in DMSO) as determined by the binding affinity in drug-binding experiments. […] 5 μL of sample was deposited onto a microslide and covered with a 22×22 mm #1 microscope cover glass. Images were taken with a Leica TCS SP8 X laser confocal microscope using a dry 10× objective at RT. Samples were excited at 460 nm and images were taken with a 470-550 nm detection window.

[2] = ATR-FTIR peak deconvolution of secondary structure
Description: Attenuated Total Reflectance-Fourier Transform Infrared Spectroscopy. Secondary structure of protein fiber variants was confirmed using attenuated total reflectance-Fourier transform infrared (ATR-FTIR) spectroscopy using the Nicolet 6700 Fourier Transform Infrared Spectrometer equipped with a diamond ATR accessory and a mercury cadmium telluride (MCT)-A detector. Spectra were collected for 5 μL of 500 μM protein from 4000-400 cm^−1 with 0.5 cm^−1 increments at room temperature (RT). For CCM bound protein, protein was bound at a final concentration of 500 μM and saturated with CCM as determined by fluorescent spectroscopic drug binding with a final 1% v/v DMSO. Sample spectra were normalized using buffer background and analyzed from 1700-1600 cm^−1 corresponding to the amide I region. Peaks were deconvoluted using Gaussian functions in PeakFit software until the goodness of fit reached r^2≥0.99. Peaks were associated with secondary structure were determined by methods known in the art.
(§1) Attenuated Total Reflectance-Fourier Transform Infrared Spectroscopy. Secondary structure of Q2 protein was confirmed using attenuated total reflectance-Fourier transform infrared (ATR-FTIR) spectroscopy using the Nicolet 6700 Fourier Transform Infrared Spectrometer equipped with a diamond ATR accessory and a mercury cadmium telluride (MCT)-A detector. Spectra were collected for 5 μL of 2 mM protein from 4000-400 cm^−1 with 0.5 cm^−1 increments. Sample spectra were normalized using buffer background and analyzed from 1700-1600 cm^−1 corresponding to the amide I region. Peaks were deconvoluted using Gaussian functions in PeakFit software until the goodness of fit reached r^2>0.99.
as §1, with “of Q2LTF and QLTF” for “of Q2”, “using a” for “using the”, “of 1” for “of 2”, “with 4.0” for “with 0.5”, “reached r^2≥0.99.” for “reached r^2>0.99.”
Attenuated Total Reflectance-Fourier Transform Infrared Spectroscopy. Secondary structure before (solution) and after gelation (gel) was also assessed by peak deconvolution of attenuated total reflectance-Fourier transform infrared (ATR-FTIR) spectra. ATR-FTIR measurements were performed using a Nicolet 6700 Fourier Transform Infrared Spectrometer equipped with a mercury cadmium telluride (MCT)-A detector. Spectra were collected for 5 μL samples of protein at 2 mM from 4000-400 cm^−1 with a 4.0 cm^−1 resolution, normalized, and buffer-subtracted prior to analysis from 1700-1600 cm^−1, corresponding to the amide I region. ATR-FTIR measurements were performed immediately after concentration to 2 mM for solution measurements and after. Peaks were deconvoluted using Gaussian functions in PeakFit software until the goodness of fit reached r^2≥0.99.

[3] = CD temperature scans (melting temperature)
Description: Circular Dichroism Spectroscopy. Secondary structure was first assessed using the Jasco J-815 CD spectrometer with a PTC-423S single position Peltier temperature control system. Wavelength scans were performed from 190 to 250 nm using 15 μM samples at 1 nm step sizes at 25° C. Temperature scans were performed at α-helical minimum 222 nm from 20 to 85° C. The mean residue ellipticity (MRE) was calculated as described previously. MRE at 222 nm and 208 nm and their ratios were used to assess relative helicity.
Circular Dichroism Spectroscopy. The secondary structure of Q2LTF and QLTF was assessed using a Jasco J-815 circular dischroism (CD) spectrometer with a PTC-423S single position Peltier temperature control system. Wavelength scans were performed from 195 to 250 nm at 1 nm step sizes by diluting the protein into water (at approximately 10 μM) in order to minimize the effects of sodium chloride. […] The mean residue ellipticity (MRE) was calculated as described.

Parallel plate rheology = settings: 10 Hz, 5% strain
Description: Rheology. Mechanical integrity of the Q2 hydrogel was assessed using a stress-controlled rheometer (Discovery Hybrid Rheometer 2, TA Instruments) equipped with a parallel plate geometry. After complete gelation of a 2 mM sample at 4° C., the sample was loaded onto the 8 mm diameter lower and upper plates with a 0.2 mm geometry gap. Strain and frequency settings were informed from previous Q hydrogel studies where the storage modulus (G′) and loss modulus (G″) were measured over the frequency range 0.1-10 Hz with a 5% oscillation strain.
Rheology. Q hydrogel variants were assessed for relative mechanical integrity with a stress-controlled rheometer (Discovery Hybrid Rheometer 2, TA Instruments) equipped with a parallel plate geometry. In parallel with microrheology measurements, 100 μL of each variant was incubated at 4° C. Upon gelation as assessed by microrheology, hydrogels were loaded onto an 8 mm diameter lower and upper plate with a 0.2 mm geometry gap. Storage modulus (G′) and loss modulus (G″) were measured from 0.1-10 Hz with 5% oscillation strain.

Q2LTF: protein-engineered fluorinated coiled-coil fiber, Q2 with trifluoroleucine, SEQ ID NO: 20 (MRGSHHHHHHGSIEGRVKE[LTF][LTF]F[LTF]KKTAEQM[LTF]EE[LTF]KETNKA[LTF]HDVRH[LTF][LTF]ENQSK[LTF]; ends and bridges not checked) [Protein Q2LTF]
average fiber diameter after CCM binding (confocal) ([1]; 50 μM Q2LTF, 40 μM curcumin): 10.8±5.4 μm
α-helical content [2]: 42.4±8.6%
aggregated strands ([2]; fluorinated constructs, Tris buffer): 6.8 % composition
melting temperature ([3]; in only water): 32.6±1.6 °C
melting temperature ([3]; phosphate buffer (50 mM Na2HPO4, pH 8.0)): 65.0±2.9 °C

Q2: coiled-coil protein redesigned from Q for reduced lateral assembly, SEQ ID NO: 11 (MRGSHHHHHHGSIEGRVKELLFLKKTAEQMLEELKETNKALHDVRHLLENQSKL) [Protein Q2]
fiber diameter after CCM binding (confocal) [1]: 7.17±2.19 μm
aggregated strands ([2]; Gel, 2 mM): 2.3 % composition
aggregated strands ([2]; Solution, 2 mM): 2.1 % composition
aggregated strands ([2]; native): 3.9%
antiparallel β-sheet/aggregated strands ([2]; native): 20.6%
change in α-helical content upon gelation ([2]; solution to gel): +12.8%
aggregated strands ([2]; w/CCM): 10.6%
antiparallel β-sheet/aggregated strands ([2]; w/CCM): 0.0%
melting temperature ([3]; CCM-bound, pH 4.0): 59.9±6.3 °C
melting temperature ([3]; native, 50 mM NaH2PO4 pH 4.0): 43.4±4.0 °C
storage modulus G′ (Parallel plate rheology): 289.6±86.9 Pa

Q: rationally designed pentameric coiled-coil derived from C, SEQ ID NO: 23 (MRGSHHHHHHGSIEGRVKEITFLKNTAPQMLRELQETNAALQDVRELLRQQSKL) [reference compound]
fiber diameter after CCM binding (confocal) [1]: 14.74±5.501 μm
aggregated strands ([2]; native): 6.0%
antiparallel β-sheet/aggregated strands ([2]; native): 13.0%
aggregated strands ([2]; w/CCM): 15.4 ± 3.8%
antiparallel β-sheet/aggregated strands ([2]; w/CCM): 7.8%
melting temperature ([3]; CCM-bound, pH 4.0): 76.4±4.6 °C
melting temperature ([3]; native, 50 mM NaH2PO4 pH 4.0): 37.0±7.8 °C

Q3: Q variant with V44I pore mutation, SEQ ID NO: 12 (MRGSHHHHHHGSIEGRVKEILFLKNTAYQMLLELKETNEALYDIRHLLQQQSKL) [Protein Q3]
fiber diameter after CCM binding (confocal) [1]: 8.04±1.78 μm
aggregated strands ([2]; native): 5.2%
antiparallel β-sheet/aggregated strands ([2]; native): 6.8%
aggregated strands ([2]; w/CCM): 17.8%
antiparallel β-sheet/aggregated strands ([2]; w/CCM): 7.6%
melting temperature ([3]; CCM-bound, pH 4.0): 61.9±2.0 °C
melting temperature ([3]; native, 50 mM NaH2PO4 pH 4.0): 61.0±4.9 °C
loss modulus G″ (Parallel plate rheology): 12±2 Pa and 12.3 ± 1.7 Pa
storage modulus G′ (Parallel plate rheology): 83±35 Pa and 82.5 ± 35.4 Pa

Q5: Q hydrogel variant from Rosetta Monte Carlo search, SEQ ID NO: 14 (MRGSHHHHHHGSIEGRVKEITFIKKTIEQIAEEMKEINKAIHDIRHALENISKK) [Protein Q5]
loss modulus G″ (Parallel plate rheology): 12±6 Pa and 11.8 ± 6.1 Pa
storage modulus G′ (Parallel plate rheology): 229±52 Pa and 228.7 ± 52.2 Pa
